In data set [1] the test system is Wnt-activated HEK 293T cells. Description: TOPFLASH dual-luciferase reporter assay. The format is cell-based. Conditions: unlabeled peptides. As to the method: A dual-luciferase reporter (DLR) assay in Wnt-activated HEK 293T cells was used to determine the ability of the peptides to modulate β-catenin levels and suppress Wnt transcription. […] Treatment of HEK 293T cells with an increasing concentration of unlabeled peptide cp4n2m3c-Antp (containing the penetratin sequence on the linker) led to a dose-dependent decrease in Wnt pathway reporter activity with an IC50 around 50 μM (Figure 8). […] Moreover, treatment with non-cell-penetrating peptides pep1 or cp4n2m3c had no effect on Wnt reporter activity, nor did treatment with cp4n1m3c-Antp (a cell-penetrating version of the non-binding peptide cp4n1m3c) (Table S2), thereby satisfying these specificity controls.
HEK 293T were grown in Dulbecco’s Modified Eagles Medium (DMEM) supplemented with 10% fetal calf serum. Wnt pathway activity was induced by treating cells with 20 mM LiCl (or KCl as control) or conditioned media obtained from L-cells expressing Wnt3A for 6 h. […]
For TOPFLASH reporter assays, 100 ng of TOPFLASH plasmid and 10 ng of CMV-Renilla plasmid (as internal control) were used to transfect cells in 24-well plates. […] Relative luciferase values were obtained from triplicate samples (from two independent experiments) by dividing the firefly luciferase values (from TOPFLASH) by the Renilla luciferase values (from CMV-renilla), and standard deviations were calculated.
For orientation: In a reporter assay the amount or activity of a reporter protein is the signal.

Data set [2] concerns the target T1, TNKS2 ARC4 (Homo sapiens, UniProt Q9H2K2).
T1 construct: GST (cleaved yes); made in house; host or cells: E. coli C41(DE3)
T1 sequence (Q9H2K2 488-649): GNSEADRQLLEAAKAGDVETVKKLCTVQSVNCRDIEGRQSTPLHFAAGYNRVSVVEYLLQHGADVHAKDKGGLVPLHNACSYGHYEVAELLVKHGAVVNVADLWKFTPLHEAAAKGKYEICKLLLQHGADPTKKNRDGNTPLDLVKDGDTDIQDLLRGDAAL
Description: Isothermal titration calorimetry, TNKS2 ARC4. Conditions: unlabeled peptides and Axin proteins. The format is binding. The protocol:
(§1) All ITC experiments were performed on a MicroCal iTC200 (GE Healthcare) at 25 °C. TNKS2 ARC4 (488–649), TNKS1 ARC2–3 (315–662), and Axin1 fragments were dialyzed overnight in PBS and 0.5 mM TCEP. Unlabeled peptides were used in the experiments. The peptide was diluted from the stock solution using the same dialysis buffer, and the effect of buffer dilution was accounted for when preparing TNKS samples. TNKS2 ARC4 (160–280 μM) or TNKS1 ARC2–3 (60–150 μM) was titrated into the sample cell containing the peptide (5–15 μM) or Axin1 fragments (8–12 μM) with an initial injection of 0.2 μL over 0.4 s followed by 19 injections of 2 μL over 4 s with a spacing of 60 s, except for TNKS2 ARC4 and Axin1 fragments for which the spacing was 70 s. Control experiments were performed using the same settings as above except that the cell was filled with dialysis buffer. Data were fitted with nonlinear regression using a one-site binding model from Origin 7.0 (MicroCal, Inc.).[90]
On the technique in general: Isothermal titration calorimetry measures the heat released or taken up as one component is titrated into another.

Data set [3] concerns the target T2, TNKS1 ARC2-3 (Homo sapiens, UniProt O95271).
T2 construct: His6 (cleaved yes); made in house; host or cells: E. coli C41(DE3)
T2 sequence (O95271 315-662): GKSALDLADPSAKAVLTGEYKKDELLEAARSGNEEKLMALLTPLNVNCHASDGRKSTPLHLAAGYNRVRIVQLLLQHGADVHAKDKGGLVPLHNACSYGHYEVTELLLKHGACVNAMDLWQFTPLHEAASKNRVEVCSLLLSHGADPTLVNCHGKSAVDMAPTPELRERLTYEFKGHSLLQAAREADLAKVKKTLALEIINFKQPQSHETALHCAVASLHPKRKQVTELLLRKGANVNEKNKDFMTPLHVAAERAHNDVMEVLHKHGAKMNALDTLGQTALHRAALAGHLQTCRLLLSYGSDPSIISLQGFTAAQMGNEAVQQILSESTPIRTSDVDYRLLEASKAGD
The data set is described as follows: Isothermal titration calorimetry, TNKS1 ARC2-3. Conditions: unlabeled peptides and Axin proteins. The format is binding. As to the method:
as §1

For data set [4], the target named is T1, TNKS2 ARC4. The data set is described as follows: Direct fluorescence polarization, TNKS2 ARC4. The format is binding. Conditions: TAMRA-labeled peptides; n.d. = not detectable; read-out: Kd TNKS2 ARC4 (Direct FP). As to the method: Fluorescence polarization (FP) assays were performed in 96-well half area black microplates (Corning) on a CLARIOstar microplate reader (BMG labtech) using excitation filter 540–20 nm, dichroic mirror LP 566 nm, and emission filter 590–20 nm. All peptides were dissolved in water as stock solutions. For direct FP assays, the stock concentrations of the TAMRA-labeled peptides were determined based on the 5-TAMRA absorbance at 556 nm (extinction coefficient ε = 89,000 M^–1 cm^–1) measured on a NanoDrop 2000 (Thermo Scientific) and verified by amino acid analysis (Department of Biochemistry, University of Cambridge). TNKS2 ARC4 (488–649) or TNKS1 ARC2–3 (315–662) was diluted 2-fold serially in the assay buffer (50 mM HEPES pH 7.5, 300 mM NaCl, 2 mM DTT, 0.05% (v/v) Tween 20) for a 12-point titration curve in triplicate. The diluted TAMRA-labeled peptide (20 nM, 50 μL) was mixed with the serially diluted TNKS2 ARC4 or TNKS1 ARC2–3 (40–0 μM, 50 μL) in each well and incubated for 30 min at 25 °C before the measurement. Data were analyzed on GraphPad Prism 5.0, and the dissociation constant, Kd, was determined using the following equation assuming the ratio between the concentration of the bound and that of the total TAMRA-labeled peptide is proportional to the fluorescence polarization [drawing 1] where FP is the fluorescence polarization, B is the minimum FP, T is the maximum FP, L0 is the total concentration of TAMRA-labeled peptide, P0 is the total concentration of protein, and Kd is the dissociation constant.
On the technique in general: Fluorescence polarisation rises when a labelled molecule tumbles more slowly, as on binding a larger partner.

The target of data set [5] is T3, AspN protease (Elizabethkingia meningoseptica, UniProt Q47899).
T3 sequence (Q47899 92-443): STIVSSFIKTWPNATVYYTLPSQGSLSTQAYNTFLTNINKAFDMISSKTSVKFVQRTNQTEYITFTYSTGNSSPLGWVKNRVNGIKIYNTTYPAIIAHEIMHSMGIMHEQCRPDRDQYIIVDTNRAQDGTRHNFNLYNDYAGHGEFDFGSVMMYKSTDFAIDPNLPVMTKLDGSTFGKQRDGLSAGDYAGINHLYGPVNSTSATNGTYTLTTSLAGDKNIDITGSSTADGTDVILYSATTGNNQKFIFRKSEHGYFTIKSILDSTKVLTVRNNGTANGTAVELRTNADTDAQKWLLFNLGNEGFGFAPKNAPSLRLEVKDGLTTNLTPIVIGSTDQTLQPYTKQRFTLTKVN
Description: in vitro. Conditions: isolated enzyme.

The target in data set [6] is T4, TNKS2 ARC4 (488–649) (human, UniProt Q9H2K2 488-649).
T4 sequence (looked up): T1 sequence (Q9H2K2 488-649)
Description: pull-down; GST-Axin1 1–80 on glutathione beads incubated with TNKS2 ARC4 (89 μM), washed, then incubated 0.5 h at room temperature with unlabeled peptide (0–200 μM); wash buffer 50 mM Tris·HCl pH 8.0, 500 mM NaCl, 2 mM DTT; SDS-PAGE, Coomassie, densitometry. Particulars: both partners purified.

The target of data set [7] is T4, TNKS2 ARC4 (488–649). The data set is described as follows: fluorescence polarisation; competitive FP; T-pep1 (20 nM) with TNKS2 ARC4 (3 μM) as tracer, unlabeled peptide serially diluted; PBS, 0.05% Tween 20; 30 min at 25 °C. Conditions: both partners purified.
Data set [8] has as its target T5, human tankyrase 1 ankyrin repeat clusters 2-3 (TNKS1 ARC2-3, residues 315-662) (human, UniProt O95271 315-662).
T5 sequence (looked up): T2 sequence (O95271 315-662)
The data set is described as follows: ITC; TNKS2 ARC4 (160-280 uM) or TNKS1 ARC2-3 (60-150 uM) titrated into the cell with unlabeled peptide (5-15 uM) or Axin1 fragment (8-12 uM); PBS, 0.5 mM TCEP; 25 C; one-site model; stoichiometry = TNKS per peptide or Axin1. Particulars: both partners purified.

In data set [9] the target is T6, human tankyrase 2 ankyrin repeat cluster 4 (TNKS2 ARC4, residues 488-649) (human, UniProt Q9H2K2 488-649).
T6 sequence (looked up): T1 sequence (Q9H2K2 488-649)
Described as above. Particulars: both partners purified.

Data set [10] concerns the target T5, human tankyrase 1 ankyrin repeat …. Description: fluorescence polarisation; competition: Axin1 fragment diluted 2-fold serially against TAMRA-labeled pep1 (20 nM) with TNKS1 ARC2-3 (1.2 uM); PBS, 0.05% Tween 20; 30 min, 25 C. Conditions: both partners purified.
The target in data set [11] is T6, human tankyrase 2 ankyrin repeat …. Description: fluorescence polarisation; competition: unlabeled peptide or Axin1 fragment diluted 2-fold serially against TAMRA-labeled pep1 (20 nM) with TNKS2 ARC4 (3 uM); PBS, 0.05% Tween 20; 30 min, 25 C. Conditions: both partners purified.
Data set [12] has as its target T4, TNKS2 ARC4 (488–649). The data set is described as follows: fluorescence polarisation; direct FP; TAMRA-labeled peptide (20 nM, 50 μL) mixed with serially diluted TNKS2 ARC4 (40–0 μM, 50 μL); 50 mM HEPES pH 7.5, 300 mM NaCl, 2 mM DTT, 0.05% Tween 20; 30 min at 25 °C. Conditions: both partners purified.

Ends that are not written are not given here. * marks the point of attachment. 5‑TAMRA = CN(C)c1ccc2c(-c3ccc(C(=O)*)cc3C(=O)[O-])c3ccc(N(C)C)cc3[o+]c2c1; Ahx = NCCCCCC(=O)O

The term Kd denotes the free concentration of one partner at which half of the binding sites on the other are occupied at equilibrium, for simple one-to-one binding. For Ac-REAGDGEE-NH2 [pep1], the “effect on Wnt reporter activity” value in [1] is reported as “no effect”. Also, the “Stoichiometry (ITC), TNKS2 ARC4” value in data set [2] is 1.0 ± 0.004. The “Stoichiometry (ITC), TNKS1 ARC2-3” value in [3] was 0.9 ± 0.01. Besides, the Kd in [3] (25 °C, read-out: Kd (nM) to TNKS1 ARC2-3 (ITC)) came out at 290 ± 30 nM.

As usually defined, the fraction remaining is the share of the starting amount still present when the sample was taken. A higher fraction remaining goes with less turnover. With `CN(C)c1ccc2c(c1)Oc1cc(N(C)C)ccc1C21OC(=O)c2cc(C(=O)NCCCCCC(=O)N[C@@H](CCCNC(=N)N)C(=O)N[C@@H](CCC(=O)O)C(=O)N[C@H]3CCn4cc(nn4)CCCc4cn(nn4)CC[C@@H](C(=O)N[C@@H](CCC(=O)O)C(N)=O)NC(=O)CNC(=O)[C@H](CC(=O)O)NC(=O)CNC3=O)ccc21` [T-cp4n2m3], in data set [4], the equilibrium dissociation constant (Kd) was 600 ± 10 nM. For the same molecule, the amount remaining at 4.5 h, 400 μM in data set [5] is roughly 100%.

The term IC50 denotes the concentration at which inhibition is half-maximal. Higher therefore signals a need for much substance. With Ac-REAGDGEE [pep1], the half-maximal inhibitory concentration (IC50) in data set [6] was roughly 40000 nM. The molecule further had a Kd in data set [7] of 1200 ± 100 nM.

What is called stoichiometry N is a count of units in the complex or per binding partner. Regarding MNIQEQGFPLDLGASFTEDAPRPPVPGEEGELVSTDPRPASYS (domain or fragment, UniProt O15169 1-43, looked up) [human Axin1 residues 1-43], the Kd in data set [8] is 830 ± 80 nM; in [9], 2120 ± 160 nM; in data set [10] it was 560 ± 40 nM; in data set [11] it was 3680 ± 180 nM. In addition, the “stoichiometry N” value in [8] stood at 1 ± 0.01; in [9], 1 ± 0.02.

Turning to {5‑TAMRA-Ahx}-REAGDGEE [T-pep1 (TAMRA-Ahx-REAGDGEE)], binding in data set [12] was put at a Kd of 800 ± 100 nM.

The values are drawn from publication PMC5358875 (Journal of the American Chemical Society, 2017).
